Reference: PMC5405513, “Identification and biochemical characterization of the fructokinase gene family in Arabidopsis thaliana” (BMC Plant Biology, 2017)

Assays:
Experiment in all cases: coupled pyruvate kinase / lactate dehydrogenase assay, NADH oxidation at A340
Assay type in all cases: biochemical, Arabidopsis thaliana
Details in all cases: 50 mM Tris pH 7.5, 100 mM KCl, 10 mM MgCl2, 1 mM fructose, 10 mM phosphate, Michaelis-Menten fit
[1] = substrate: Nc1ncnc2c1ncn2[C@@H]1O[C@H](COP(=O)(O)OP(=O)(O)OP(=O)(O)O)[C@@H](O)[C@H]1O
Source text: coupled pyruvate kinase / lactate dehydrogenase assay, NADH oxidation at A340 on FRK1

[2] = substrate: Nc1ncnc2c1ncn2[C@@H]1O[C@H](COP(=O)(O)OP(=O)(O)OP(=O)(O)O)[C@@H](O)[C@H]1O; remark: listed apart in the source
Source text: coupled pyruvate kinase / lactate dehydrogenase assay, NADH oxidation at A340 on FRK6

[3] = substrate: Nc1ncnc2c1ncn2[C@@H]1O[C@H](COP(=O)(O)OP(=O)(O)OP(=O)(O)O)[C@@H](O)[C@H]1O; remark: listed apart in the source
Source text: coupled pyruvate kinase / lactate dehydrogenase assay, NADH oxidation at A340 on FRK5

[4] = substrate: Nc1ncnc2c1ncn2[C@@H]1O[C@H](COP(=O)(O)OP(=O)(O)OP(=O)(O)O)[C@@H](O)[C@H]1O; remark: listed apart in the source
Source text: coupled pyruvate kinase / lactate dehydrogenase assay, NADH oxidation at A340 on FRK2

[5] = substrate: Nc1ncnc2c1ncn2[C@@H]1O[C@H](COP(=O)(O)OP(=O)(O)OP(=O)(O)O)[C@@H](O)[C@H]1O; remark: listed apart in the source
Source text: coupled pyruvate kinase / lactate dehydrogenase assay, NADH oxidation at A340 on FRK3

[6] = substrate: Nc1ncnc2c1ncn2[C@@H]1O[C@H](COP(=O)(O)OP(=O)(O)OP(=O)(O)O)[C@@H](O)[C@H]1O; remark: listed apart in the source
Source text: coupled pyruvate kinase / lactate dehydrogenase assay, NADH oxidation at A340 on FRK4

B1: FRK1 (Arabidopsis thaliana) (protein)
chain: MGEDAISGNLKNLTIDTRDSETLVVCFGEMLIDFVPTVGGVSLAEAPAFKKAPGGAPANVAVGVSRLGGSSAFIGKVGDDEFGRMLADILRLNNVDNSGMRFDHNARTALAFVTLRGDGEREFLFFRHPSADMLLLESELDKNLIQKAKIFHYGSISLIEEPCRSTQLVAMKIAKAAGSLLSYDPNLRLPLWPSEEAARKEIMSIWNLADVIKISEDEITFLTGGDDPYDDDVVLQKLFHPNLKLLVVSEGPNGCRYYTQEFKGRVGGVKVKPVDTTGAGDAFVSGLLNSLASDLTLLKDEKKLREALLFANACGAITVTERGAIPAMPSMDAVQDLLSSTRS
**Q.** Which results are given for B1?
**A.** Km [1]: 52 ± 7.8 µM; kcat [1]: 14.2 s⁻¹

B2: FRK6 (Arabidopsis thaliana) (protein)
chain: MTSSNGDNKGLVVSFGEMLIDFVPTESGVSLSESSGFLKAPGGAPANVAIAVSRLGGRAAFVGKLGDDEFGHMLAGILRKNDVDDQGINFDKGARTALAFVTLRSDGEREFMFYRNPSADMLLRPDELNLELIRSAKVFHYGSISLITEPCRSAHMKAMEVAKEAGALLSYDPNLREPLWPSPEEARKQIMSIWDKADIIKVSDVELEFLTGNKTIDDETAMSLWHPNLKLLLVTLGENGCRYYTKDFHGSVETFHVDAVDTTGAGDSFVGALLNQIVDDQSVLEEEERLRKVLRFANACGAITTTKKGAIPALPTDCEALSFLKIQVE
**Q.** Which results are given for B2?
**A.** Km [2]: 160 ± 21 µM; kcat [2]: 12.8 s⁻¹

B3: FRK5 (Arabidopsis thaliana) (protein)
chain: MASSTGEKGLIVSFGEMLIDFVPTVSGVSLSESPGFLKAPGGAPANVAIAVSRLGGRAAFVGKLGDDDFGHMLAGILRKNGVDDQGINFDEGARTALAFVTLRSDGEREFMFYRNPSADMLLRPDELNLELIRSAKVFHYGSISLITEPCRSAHMKAMEVAKEAGALLSYDPNLREPLWPSPEEARTQIMSIWDKADIIKVSDVELEFLTENKTMDDKTAMSLWHPNLKLLLVTLGEKGCTYFTKKFHGSVETFHVDAVDTTGAGDSFVGALLQQIVDDQSVLEDEARLRKVLRFANACGAITTTKKGAIPALPTDIEALSFLKDQKKRQTNLKFSKWCCTASPC
**Q.** B3 was tested. Which Km [3] did it give?
**A.** 180 ± 57 µM

**Q.** And the kcat [3]?
**A.** 4.8 s⁻¹

B4: FRK2 (Arabidopsis thaliana) (protein)
chain: MASNGDKGLIVSFGEMLIDFVPTESGVSLAEAPGFLKAPGGAPANVAIAVSRLGGRSAFVGKLGDDEFGHMLAGILRKNGVDDQGINFDTGARTALAFVTLRADGDREFMFYRNPSADMLLRPDELNLDLIRSAKVFHYGSISLIVEPCRSAHLKAMEVAKEAGALLSYDPNLREPLWPSKEEAKTQIMSIWDKAEIIKVSDVELEFLTGSNKIDDETALTLWHPNLKLLLVTLGEKGCRYYTKTFKGAVDPFHVNAVDTTGAGDSFVGALLNQIVDDRSVLEDEERLRKVLRFANACGAITTTKKGAIPALPSDAEVRSFLEKK
**Q.** How did the Km [4] turn out when B4 was run?
**A.** 85 ± 8.7 µM

**Q.** What about the kcat [4] of the same protein?
**A.** 10.3 s⁻¹

B5: FRK3 (Arabidopsis thaliana) (protein)
chain: SNLKGRALSSDGSTQESPYVVCFGEMLIDFVPTTSGLSLADAPAFKKAPGGAPANVAVGIARLGGSSAFIGKVGEDEFGYMLANILKDNNVNNDGMRFDPGARTALAFVTLTNEGEREFMFYRNPSADMLLEESELDFDLIKKAKIFHYGSISLITEPCKSAHISAAKAAKEAGVILSYDPNLRLPLWPSADNAREEILSIWETADIIKISEEEIVFLTKGEDPYDDNVVRKLFHPKLKLLLVTEGPEGCRYYTKDFSGRVHGLKVDVVDTTGAGDAFVAGILSQLANDLSLLQDEERLREALMFANACGALTVKVRGAIPALPTKEAVHEALLKAVV
**Q.** How did the Km [5] turn out when B5 was run?
**A.** 52 ± 9.8 µM

**Q.** What about the kcat [5] of the same protein?
**A.** 14.3 s⁻¹

B6: FRK4 (Arabidopsis thaliana) (protein)
chain: MANTPLIVSFGEMLIDFVPDTSGVSLAESTGFLKAPGGAPANVACAITKLGGKSAFIGKFGDDEFGHMLVNILKKNGVNSEGVCFDTNARTALAFVTLKKDGEREFMFYRNPSADMLLKESELNKDLIKKAKIFHYGSISLISEPCRTAHMAAMKTAKDAGVLLSYDPNVRLPLWPSTEAAIEGIKSIWNEADIIKVSDDEVTFLTRGDAEKDDVVLSLMHDKLKLLIVTDGEKGCRYYTKKFKGRVPGYAVKAVDTTGAGDSFVGAFLVSLGKDGSILDDEGKLKEALAFANACGAVCTTQKGAIPALPTPADAQKLMKSKSK
**Q.** Which results are given for B6?
**A.** Km [6]: 95 ± 7.9 µM; kcat [6]: 11.1 s⁻¹
